Source: publication PMC7897479

Key:
SpCas9-His [1] = target: T1, SpCas9-His (Streptococcus pyogenes, UniProt Q99ZW2 1-1368); assay: EMSA
SpCas9-His [2] = target: T1, SpCas9-His; assay: SPR

T1 sequence (Q99ZW2 whole entry): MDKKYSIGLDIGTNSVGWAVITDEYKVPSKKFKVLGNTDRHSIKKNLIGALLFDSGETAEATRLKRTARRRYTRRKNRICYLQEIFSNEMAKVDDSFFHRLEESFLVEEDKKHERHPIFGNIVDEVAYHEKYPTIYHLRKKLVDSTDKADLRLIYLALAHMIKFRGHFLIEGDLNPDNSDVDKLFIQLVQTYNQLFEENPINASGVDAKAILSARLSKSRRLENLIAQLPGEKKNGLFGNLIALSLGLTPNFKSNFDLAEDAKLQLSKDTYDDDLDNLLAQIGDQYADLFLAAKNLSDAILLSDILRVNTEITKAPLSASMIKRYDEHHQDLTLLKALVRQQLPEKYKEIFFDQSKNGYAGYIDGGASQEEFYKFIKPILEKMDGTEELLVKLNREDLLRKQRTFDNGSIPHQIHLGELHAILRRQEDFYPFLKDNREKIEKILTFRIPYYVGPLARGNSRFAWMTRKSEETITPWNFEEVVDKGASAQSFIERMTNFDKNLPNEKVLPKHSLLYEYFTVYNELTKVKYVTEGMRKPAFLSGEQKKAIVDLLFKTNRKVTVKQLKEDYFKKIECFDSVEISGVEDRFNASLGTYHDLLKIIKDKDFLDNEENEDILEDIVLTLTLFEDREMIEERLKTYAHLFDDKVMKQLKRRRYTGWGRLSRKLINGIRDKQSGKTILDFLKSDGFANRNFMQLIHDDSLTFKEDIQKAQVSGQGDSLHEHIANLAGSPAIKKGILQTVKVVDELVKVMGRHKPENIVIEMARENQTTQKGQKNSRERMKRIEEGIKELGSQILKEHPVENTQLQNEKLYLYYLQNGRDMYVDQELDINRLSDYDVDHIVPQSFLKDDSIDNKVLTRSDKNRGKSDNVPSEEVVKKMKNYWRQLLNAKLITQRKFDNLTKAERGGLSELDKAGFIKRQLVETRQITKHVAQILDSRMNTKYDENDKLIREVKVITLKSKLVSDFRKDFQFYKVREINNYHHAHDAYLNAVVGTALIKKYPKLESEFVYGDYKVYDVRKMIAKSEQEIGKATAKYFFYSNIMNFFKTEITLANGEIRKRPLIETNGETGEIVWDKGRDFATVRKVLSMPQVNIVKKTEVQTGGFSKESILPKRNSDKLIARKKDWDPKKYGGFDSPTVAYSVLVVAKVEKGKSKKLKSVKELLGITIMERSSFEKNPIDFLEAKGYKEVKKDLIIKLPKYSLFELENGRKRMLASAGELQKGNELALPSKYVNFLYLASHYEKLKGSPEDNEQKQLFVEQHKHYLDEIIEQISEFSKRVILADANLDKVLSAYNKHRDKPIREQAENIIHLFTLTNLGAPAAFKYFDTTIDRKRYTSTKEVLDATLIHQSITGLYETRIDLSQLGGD

B1: SA-Ap (streptavidin aptamer) (structured_DNA)
DNA: GGTCCTCACACCGCTGTGTGCCGCAACACTGTGAGGACC
Q: Does B1 bind (SpCas9-His [1])?
A: no binding

B2: Loop-NC for Biacore (structured_DNA)
DNA: GAGGCTCTCACAGTAATGTGAGAGCCT
Q: Does B2 bind (SpCas9-His [2])?
A: no binding

B3: Loop-NC for EMSA (structured_DNA)
DNA: GAGGCTCTCACAGTAATGTGAGAGCCT
Q: Does B3 bind (SpCas9-His [1])?
A: no binding

B4: SS21 NM2 (structured_DNA)
DNA: GAGGCTCTCACAGCGCGCCTTTCGTTGTGAGAGCCTC
Q: Does B4 bind (SpCas9-His [1])?
A: no binding

B5: S21 for Biacore (structured_DNA)
DNA: GAGGCTCTCACATCGCGCCTTTCCCCAGCTTTCGGTGTGAGAGCCTC
Q: B5 was tested. Which Kd (SpCas9-His [2]) did it give?
A: 0.63 nM
